Data published in PMC10757926, “Two birds with one stone: human SIRPα nanobodies for functional modulation and in vivo imaging of myeloid cells” (Frontiers in Immunology, 2023).

What was measured:
[1] = target: T1, full-length hSIRPα on U2OS cells (Homo sapiens, UniProt P78324); test: immunostaining of cells or tissue; live-cell immunofluorescence on U2OS cells expressing the target; unlabeled Nbs (1 nM to 100 nM) with Cy5-labeled anti-VHH, 1 h at 37°C; details: one partner purified
T1 construct: signal-regulatory protein α (SIRPα), human, full-length, co-expressed with IRES-derived GFP; also called U2OS-hSIRPα; source: U2OS, stably expressing, on live cells
T1 sequence (P78324 31-504): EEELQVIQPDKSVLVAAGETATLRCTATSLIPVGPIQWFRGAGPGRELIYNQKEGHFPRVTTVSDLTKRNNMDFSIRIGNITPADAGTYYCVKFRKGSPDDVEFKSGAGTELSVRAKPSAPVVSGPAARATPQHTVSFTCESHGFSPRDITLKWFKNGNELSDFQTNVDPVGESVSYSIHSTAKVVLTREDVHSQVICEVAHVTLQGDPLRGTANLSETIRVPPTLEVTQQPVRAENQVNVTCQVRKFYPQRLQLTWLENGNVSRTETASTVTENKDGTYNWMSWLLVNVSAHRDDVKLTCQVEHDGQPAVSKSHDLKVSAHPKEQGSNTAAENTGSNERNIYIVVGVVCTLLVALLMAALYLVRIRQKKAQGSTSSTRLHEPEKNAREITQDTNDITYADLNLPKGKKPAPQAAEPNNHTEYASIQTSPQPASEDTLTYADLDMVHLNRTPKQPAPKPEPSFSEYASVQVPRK

[2] = target: T2, hSIRPβ1 displayed on U2OS cells (Homo sapiens, UniProt O00241); test: as above; details: one partner purified
T2 construct: signal-regulatory protein β1 (SIRPβ1), human; source: U2OS, transiently expressing, on live cells
T2 sequence (O00241 30-398): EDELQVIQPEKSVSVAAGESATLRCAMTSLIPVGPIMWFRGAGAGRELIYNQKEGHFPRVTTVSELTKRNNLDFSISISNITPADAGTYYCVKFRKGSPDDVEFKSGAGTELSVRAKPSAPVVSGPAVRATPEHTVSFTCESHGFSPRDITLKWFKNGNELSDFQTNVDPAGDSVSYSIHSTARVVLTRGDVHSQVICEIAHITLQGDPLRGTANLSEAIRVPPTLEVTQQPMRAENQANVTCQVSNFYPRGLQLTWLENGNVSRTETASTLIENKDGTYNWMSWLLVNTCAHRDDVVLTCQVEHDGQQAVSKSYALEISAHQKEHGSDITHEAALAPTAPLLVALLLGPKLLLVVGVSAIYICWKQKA

[3] = target: T3, hSIRPα domain 2 displayed on U2OS cells (Homo sapiens, UniProt P78324); test: as above; details: one partner purified
T3 construct: signal-regulatory protein α (SIRPα), human, domain 2; also called hSIRPαD2; D2; source: U2OS, transiently expressing, on live cells
T3 sequence (P78324 whole entry, looked up, tested part not stated): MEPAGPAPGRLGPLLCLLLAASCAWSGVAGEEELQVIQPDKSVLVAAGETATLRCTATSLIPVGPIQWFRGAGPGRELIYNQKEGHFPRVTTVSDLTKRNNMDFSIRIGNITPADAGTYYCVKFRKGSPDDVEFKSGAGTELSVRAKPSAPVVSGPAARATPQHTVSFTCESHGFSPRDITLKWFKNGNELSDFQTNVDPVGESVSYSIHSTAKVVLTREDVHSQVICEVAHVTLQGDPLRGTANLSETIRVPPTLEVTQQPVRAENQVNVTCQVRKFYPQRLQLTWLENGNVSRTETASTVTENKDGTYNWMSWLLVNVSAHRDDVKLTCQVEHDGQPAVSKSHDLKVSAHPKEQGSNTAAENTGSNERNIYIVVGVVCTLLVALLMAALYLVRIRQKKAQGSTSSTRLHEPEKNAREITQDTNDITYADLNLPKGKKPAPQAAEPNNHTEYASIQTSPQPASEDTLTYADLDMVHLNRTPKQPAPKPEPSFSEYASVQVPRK

[4] = target: T4, hSIRPγ displayed on U2OS cells (Homo sapiens, UniProt Q9P1W8); test: as above; details: one partner purified
T4 construct: signal-regulatory protein γ (SIRPγ), human; also called hSIRPy; source: U2OS, transiently expressing, on live cells
T4 sequence (Q9P1W8 29-387): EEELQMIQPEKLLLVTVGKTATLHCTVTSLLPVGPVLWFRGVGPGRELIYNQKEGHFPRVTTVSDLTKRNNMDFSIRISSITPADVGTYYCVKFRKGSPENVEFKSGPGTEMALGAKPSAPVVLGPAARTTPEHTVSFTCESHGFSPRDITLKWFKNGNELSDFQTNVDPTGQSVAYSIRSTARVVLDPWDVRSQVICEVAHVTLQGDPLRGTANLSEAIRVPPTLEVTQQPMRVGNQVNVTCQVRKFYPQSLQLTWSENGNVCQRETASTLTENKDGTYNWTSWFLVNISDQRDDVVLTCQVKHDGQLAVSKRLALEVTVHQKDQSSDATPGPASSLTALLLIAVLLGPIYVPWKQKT

[5] = target: T5, hSIRPα domain 3 displayed on U2OS cells (Homo sapiens, UniProt P78324); test: as above; details: one partner purified
T5 construct: signal-regulatory protein α (SIRPα), human, domain 3; also called hSIRPαD3; D3; source: U2OS, transiently expressing, on live cells
T5 sequence (P78324 whole entry, looked up, tested part not stated): as the sequence (P78324 whole entry, looked up, tested part not stated) above

[6] = target: T6, hSIRPα-V1 displayed on U2OS cells (Homo sapiens, allele V1, UniProt P78324); test: as above; details: one partner purified
T6 construct: signal-regulatory protein α (SIRPα), human, allelic variant V1; also called hSIRPα variant V1; source: U2OS, transiently expressing, on live cells
T6 sequence (P78324 31-504): as the sequence (P78324 31-504) above

[7] = target: T7, murine SIRPα displayed on U2OS cells (Mus musculus, UniProt P97797); test: as above; details: one partner purified
T7 construct: signal-regulatory protein α (SIRPα), mouse; also called mouse SIRPα; source: U2OS, transiently expressing, on live cells
T7 sequence (P97797 32-513): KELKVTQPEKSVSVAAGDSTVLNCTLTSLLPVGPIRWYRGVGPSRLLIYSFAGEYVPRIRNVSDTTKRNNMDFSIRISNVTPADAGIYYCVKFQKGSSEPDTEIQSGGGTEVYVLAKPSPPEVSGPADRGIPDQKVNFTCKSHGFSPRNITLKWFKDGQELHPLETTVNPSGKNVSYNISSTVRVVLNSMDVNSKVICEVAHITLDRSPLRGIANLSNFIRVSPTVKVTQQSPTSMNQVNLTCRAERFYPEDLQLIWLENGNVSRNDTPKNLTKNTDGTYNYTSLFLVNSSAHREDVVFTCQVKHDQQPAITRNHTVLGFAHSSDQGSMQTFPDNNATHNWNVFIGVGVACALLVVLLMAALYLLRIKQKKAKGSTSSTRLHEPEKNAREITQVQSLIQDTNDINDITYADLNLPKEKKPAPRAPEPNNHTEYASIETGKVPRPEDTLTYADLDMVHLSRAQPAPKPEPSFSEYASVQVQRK

[8] = target: T8, recombinant hSIRPα (human, UniProt P78324); test: HDX-MS; hSIRPα with Nb S8, S33 or S36; methods not in the text shown; details: both partners purified
T8 construct: signal-regulatory protein α (SIRPα), human, recombinant extracellular portion; source: bought: Acrobiosystems
T8 sequence (P78324 31-373): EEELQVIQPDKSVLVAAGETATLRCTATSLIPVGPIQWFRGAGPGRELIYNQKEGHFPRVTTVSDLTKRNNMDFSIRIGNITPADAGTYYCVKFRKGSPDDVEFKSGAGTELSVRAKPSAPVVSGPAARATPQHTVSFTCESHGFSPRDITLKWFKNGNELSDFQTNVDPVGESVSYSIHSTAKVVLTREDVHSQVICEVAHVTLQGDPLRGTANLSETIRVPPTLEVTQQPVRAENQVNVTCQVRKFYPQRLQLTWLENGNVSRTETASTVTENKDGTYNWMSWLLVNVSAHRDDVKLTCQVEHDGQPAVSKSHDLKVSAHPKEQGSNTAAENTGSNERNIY

[9] = target: T9, biotinylated recombinant hSIRPα (extracellular portion) (Homo sapiens, UniProt P78324, biotin (Sulfo-NHS-LC-LC-Biotin)); test: BLI; Octet RED96e; biotinylated hSIRPα (5 µg/mL) immobilised on streptavidin biosensors; Nbs 0.625 nM to 320 nM in Octet buffer (PBS, 0.1% BSA, 0.02% Tween-20); association 240 s, dissociation 720 s; 1:1 model, global fit; details: both partners purified
T9 construct: signal-regulatory protein α (SIRPα), human, recombinant extracellular portion; also called biotinylated hSIRPα; signal-regulatory protein α; source: bought: Acrobiosystems
T9 sequence (P78324 31-373): as above

[10] = target: T10, hSIRPα on HT1080 hSIRPα knock-in cells (Homo sapiens, UniProt P78324); test: radioligand binding; antigen excess binding assay: 1 ng (2 MBq/µg) of ^64Cu-hSIRPα-S36K>R Nb on an increasing number of HT1080-hSIRPα cells, 1 h at 37°C; cell-bound radioactivity counted; details: one partner purified
T10 construct: signal-regulatory protein α (SIRPα), human; source: HT1080 hSIRPα knock-in (KI) cells, on cells
T10 sequence (P78324 31-504): as the sequence (P78324 31-504) above

Measured: binding result

B1: hSIRPα-S36 Nb (VHH)
VHH: EVQLVESGGGLVQPGGSLRLSCAASGFTLDYYAIGWFRQVPGKEREGVSCISSDGGGNTYYADSVKGRFTISRDNAKNTVYLQMNSLKPEDSAVYSCAAGPTYYSGSYCRDPHSDYDYWGQGTQVTVSS
notes: selected against the entire extracellular portion of hSIRPα; also called Nb S36; original S36 Nb; source: E. coli XL-1, purified (IMAC, SEC); not shown: His tag (from the IMAC purification)
no binding (tested: Nbs 1 nM to 100 nM): [5] | [7]
binds: [1] | [2] | [3] | [4] | [6] | [8] | [9]

B2: ^64Cu-hSIRPα-S36K>R Nb (VHH)
VHH: EVQLVESGGGLVQPGGSLRLSCAASGFTLDYYAIGWFRQVPGREREGVSCISSDGGGNTYYADSVRGRFTISRDNARNTVYLQMNSLRPEDSAVYSCAAGPTYYSGSYCRDPHSDYDYWGQGTQVTVSS
notes: as the VHH of m15 (S36 with all four lysine residues replaced by arginine); also called ^64Cu-labeled hSIRPα-S36K>R Nb; source: E. coli, purified; chelator conjugated and radiolabeled with ^64Cu
binds: [10]
